In paper PMC5923263:

Experiments:
[1] = biological target: His-tagged Sll1961 C307A (Synechocystis sp. PCC 6803); assay: SEC-MALS; size exclusion chromatography with static light scattering (Viscotek TDA 305), Superdex 75 increase 3.2/300; BSA as standard
[2] = biological target: His-tagged Sll1961 C307A (Synechocystis sp. PCC 6803); assay: SEC; His-Sll1961 reduced with 100 mM DTT for 15 min at room temperature, 60 μM; Superdex 75 increase 3.2/300 or Superdex 200 increase 3.2/300; 20 mM sodium phosphate (pH 7.4), 150 mM NaCl, 3 mM DTT; standards of 150, 66 and 44 kDa
[3] = biological target: His-tagged Sll1961 C124A (Synechocystis sp. PCC 6803); assay: SEC-MALS; size exclusion chromatography with static light scattering (Viscotek TDA 305), Superdex 75 increase 3.2/300; BSA as standard
[4] = biological target: His-tagged Sll1961 C124A (Synechocystis sp. PCC 6803); assay: SEC; His-Sll1961 reduced with 100 mM DTT for 15 min at room temperature, 60 μM; Superdex 75 increase 3.2/300 or Superdex 200 increase 3.2/300; 20 mM sodium phosphate (pH 7.4), 150 mM NaCl, 3 mM DTT; standards of 150, 66 and 44 kDa
[5] = biological target: His-tagged Sll1961 (wild type) (Synechocystis sp. PCC 6803); assay: SEC-MALS; size exclusion chromatography with static light scattering (Viscotek TDA 305), Superdex 75 increase 3.2/300; BSA as standard
[6] = biological target: His-tagged Sll1961 (wild type) (Synechocystis sp. PCC 6803); assay: SEC; His-Sll1961 reduced with 100 mM DTT for 15 min at room temperature, 60 μM; Superdex 75 increase 3.2/300 or Superdex 200 increase 3.2/300; 20 mM sodium phosphate (pH 7.4), 150 mM NaCl, 3 mM DTT; standards of 150, 66 and 44 kDa
[7] = biological target: His-tagged Sll1961 C229A (Synechocystis sp. PCC 6803); assay: SEC-MALS; size exclusion chromatography with static light scattering (Viscotek TDA 305), Superdex 75 increase 3.2/300; BSA as standard
[8] = biological target: His-tagged Sll1961 C229A (Synechocystis sp. PCC 6803); assay: SEC; His-Sll1961 reduced with 100 mM DTT for 15 min at room temperature, 60 μM; Superdex 75 increase 3.2/300 or Superdex 200 increase 3.2/300; 20 mM sodium phosphate (pH 7.4), 150 mM NaCl, 3 mM DTT; standards of 150, 66 and 44 kDa

His-tagged Sll1961 C307A (natural protein)
stoichiometry N [1]: 2 | stoichiometry N [2]: 2

His-tagged Sll1961 C124A (natural protein)
stoichiometry N [3]: 2 | stoichiometry N [4]: 2

His-tagged Sll1961 (wild type) (natural protein)
stoichiometry N [5]: 2 | stoichiometry N [6]: 2

His-tagged Sll1961 C229A (natural protein)
stoichiometry N [7]: 2 | stoichiometry N [8]: 2
